# From US12247058 (Bristol-Myers Squibb, dated 2025)
# Non-standard residues stand in square brackets, D forms with d. Phe(4-Ac) = CC(=O)c1ccc(C[C@H](N)C(=O)O)cc1
# B1: Compound 32 (Non-Pegylated Control) (ligand)
# chain: MHHHHHHPIPDSSPLLQFGGQVRQRYLYTDDAQQTEAHLEIREDGTVGGAADQSPESLLQLKALKPGVIQILGVKTSRFLCQRPDGALYGSLHFDPEACSFRELLLEDGYNVYQSEAHGLPLHLPGNKSPHRDPAPRGPARFLPLPGLPPALPEPPGILAPQPPDVGSSDPLSMVGPSQGRSPSYAS
# B2: Pegylated Compound 1 (ligand)
# chain: MHPIPDSSPLLQFGGQVRQRYLYTDDAQQTEAHLEIREDGTVGGAADQSPESLLQLKALKPGVIQILGVKTSRFLCQRPDGALYGSLHFDPEACSFRELLLEDGYNVY[Phe(4-Ac)](PEG 30 kDa)SEAHGLPLHLPGNKSPHRDPAPRGPARFLPLPGLPPAPPEPPGILAPQPPDVGSSDPLSMVGPSQGRSPSYAS
# B3: Compound 181 [Fc(hIgG1f_1.1_186)-L7-FGF21 (Cmp. 2)] (Fc fusion)
# chain: EPKSSDKTHTCPPCPAPEAEGAPSVFLFPPKPKDTLMISRTPEVTCVVVDVSHEDPEVKFNWYVDGVEVHNAKTKPREEQYNSTYRVVSVLTVLHQDWLNGKEYKCKVSNKALPSSIEKTISKAKGQPREPQVYTLPPSREEMTKNQVSLTCLVKGFYPSDIAVEWESNGQPENNYKTTPPVLDSDGSFFLYSKLTVDKSRWQQGNVFSCSVMHEALHNHYTQKSLSLSPGKGGGGGSGGGSGGGGSHPIPDSSPLLQFGGQVRQRYLYTDDAQQTEAHLEIREDGTVGGAADQSPESLLQLKALKPGVIQILGVKTSRFLCQRPDGALYGSLHFDPEACSFRELLLEDGYNVYQSEAHGLPLHLGSGRGPARFLPLPGLPPAPPEPPGILAPQPPDVGSSDPLSMVEPSQGRSPSYAS
# B4: Pegylated Compound 2 (ligand)
# chain: MHPIPDSSPLLQFGGQVRQRYLYTDDAQQTEAHLEIREDGTVGGAADQSPESLLQLKALKPGVIQILGVKTSRFLCQRPDGALYGSLHFDPEACSFRELLLEDGYNVY[Phe(4-Ac)](PEG about 30 kDa)SEAHGLPLHLGSGRGPARFLPLPGLPPAPPEPPGILAPQPPDVGSSDPLSMVEPSQGRSPSYAS
# Assays:
# Assay in all cases: cell-based or functional assay
# [1] = target: T1, human β-klotho with a C-terminal FLAG tag, stably expressed in a clonal HEK-293 cell line (human, UniProt Q86Z14 1-1044)
# T1 sequence: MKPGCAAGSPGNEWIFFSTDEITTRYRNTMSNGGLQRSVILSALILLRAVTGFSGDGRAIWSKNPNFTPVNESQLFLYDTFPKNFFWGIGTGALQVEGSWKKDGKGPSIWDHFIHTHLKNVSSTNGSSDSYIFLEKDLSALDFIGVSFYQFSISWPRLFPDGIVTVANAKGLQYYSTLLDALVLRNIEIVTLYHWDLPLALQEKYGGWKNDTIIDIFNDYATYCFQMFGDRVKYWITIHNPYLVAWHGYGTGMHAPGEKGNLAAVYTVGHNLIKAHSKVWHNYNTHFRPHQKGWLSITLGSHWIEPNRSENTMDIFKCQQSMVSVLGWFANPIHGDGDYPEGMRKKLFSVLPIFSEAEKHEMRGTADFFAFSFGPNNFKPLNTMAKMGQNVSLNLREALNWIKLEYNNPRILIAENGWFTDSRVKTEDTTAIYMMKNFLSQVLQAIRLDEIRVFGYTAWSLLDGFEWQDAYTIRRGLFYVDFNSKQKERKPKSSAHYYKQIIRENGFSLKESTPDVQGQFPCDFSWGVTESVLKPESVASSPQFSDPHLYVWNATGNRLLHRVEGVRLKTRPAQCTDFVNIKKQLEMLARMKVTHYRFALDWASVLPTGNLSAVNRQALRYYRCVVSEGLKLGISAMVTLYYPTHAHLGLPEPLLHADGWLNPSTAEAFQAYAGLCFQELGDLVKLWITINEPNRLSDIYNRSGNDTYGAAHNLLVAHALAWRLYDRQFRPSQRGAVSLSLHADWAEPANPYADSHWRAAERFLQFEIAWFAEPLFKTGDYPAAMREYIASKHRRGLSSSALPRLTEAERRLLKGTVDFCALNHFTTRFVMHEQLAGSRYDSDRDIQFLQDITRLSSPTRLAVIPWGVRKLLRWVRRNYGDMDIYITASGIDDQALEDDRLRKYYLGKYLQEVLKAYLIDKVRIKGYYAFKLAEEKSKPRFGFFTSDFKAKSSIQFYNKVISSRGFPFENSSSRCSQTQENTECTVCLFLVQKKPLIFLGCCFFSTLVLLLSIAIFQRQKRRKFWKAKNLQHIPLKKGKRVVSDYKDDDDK
# [2] = target: T1, human β-klotho with a C-terminal FLAG …; remark: listed apart in the source
# [3] = target: T2, human β-klotho, stably co-expressed with the Elk1-luciferase trans-reporter in HEK293 cells (HEK Luc Clone2) (human, UniProt Q86Z14 1-1044)
# T2 sequence: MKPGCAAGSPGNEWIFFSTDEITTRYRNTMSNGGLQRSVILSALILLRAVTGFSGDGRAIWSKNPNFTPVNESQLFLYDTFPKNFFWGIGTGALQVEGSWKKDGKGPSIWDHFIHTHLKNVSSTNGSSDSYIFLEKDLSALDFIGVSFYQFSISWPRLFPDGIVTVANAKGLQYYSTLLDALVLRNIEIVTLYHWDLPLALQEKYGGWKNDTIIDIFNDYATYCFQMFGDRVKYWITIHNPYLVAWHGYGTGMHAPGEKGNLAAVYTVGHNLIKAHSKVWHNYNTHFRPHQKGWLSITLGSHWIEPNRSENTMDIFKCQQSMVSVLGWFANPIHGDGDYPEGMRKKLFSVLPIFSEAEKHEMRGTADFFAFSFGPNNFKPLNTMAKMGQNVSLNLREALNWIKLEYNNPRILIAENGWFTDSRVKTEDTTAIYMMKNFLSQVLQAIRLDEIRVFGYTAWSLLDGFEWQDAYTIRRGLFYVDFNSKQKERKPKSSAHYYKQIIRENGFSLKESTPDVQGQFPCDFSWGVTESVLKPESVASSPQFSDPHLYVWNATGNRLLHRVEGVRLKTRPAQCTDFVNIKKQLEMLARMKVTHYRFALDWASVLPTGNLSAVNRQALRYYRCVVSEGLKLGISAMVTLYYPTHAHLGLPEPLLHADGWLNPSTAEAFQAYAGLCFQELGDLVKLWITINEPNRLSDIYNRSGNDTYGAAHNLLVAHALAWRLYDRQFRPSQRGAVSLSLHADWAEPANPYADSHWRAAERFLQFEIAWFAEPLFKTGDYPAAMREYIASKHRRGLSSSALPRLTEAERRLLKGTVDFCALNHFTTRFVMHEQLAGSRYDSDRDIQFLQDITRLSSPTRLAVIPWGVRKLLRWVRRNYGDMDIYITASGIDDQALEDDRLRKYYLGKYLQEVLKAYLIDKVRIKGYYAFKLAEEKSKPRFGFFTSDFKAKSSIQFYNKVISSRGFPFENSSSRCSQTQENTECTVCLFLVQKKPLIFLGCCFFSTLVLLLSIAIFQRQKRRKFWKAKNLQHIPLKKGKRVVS
# [4] = target: T2, human β-klotho, stably co-expressed …; remark: listed apart in the source
Binder,EC50 in the pERK assay [1] [nM],pERK EC50 [2] [nM],"EC50 (geometric mean), 5 hour Elk1-luciferase assay [3] [nM]","pEC50, 5 hour Elk1-luciferase assay [3] [log M]","Geometric Mean EC50, Elk1-luciferase assay [4] [nM]"
B1,8,,,,
B2,14,6.7,3.6,8.44,
B3,,,,,0.8
B4,28,,5.4,8.27,5.9
